Experimental data published in US20220251170A1 (KOREA INSTITUTE OF SCIENCE AND TECHNOLOGY, published 2022).

Target: T1, human CD47 on the surface of HT29 and Raji tumor cells (human, UniProt Q08722 19-323)
T1 construct: whole, on cells; also called cell surface CD47
Test: cell binding assay, flow cytometry, anti-Myc detection (FIG. 15A)
Description: Cell binding analysis according to one embodiment of the present invention was carried out by culturing HT29 human colon adenocarcinoma (ATCC), Raji human B cell lymphoma (ATCC) and CT26.CL25 mouse colon cancer cells (ATCC) in RPMI-1640 culture medium supplemented with 10% FBS and 1% antibiotics and the cultures were maintained at 37° C. and 5% CO₂. HT29 and Raji cells were then cultured with the addition of an anti-human CD47 antibody (B6H12.2, Abcam, ab3283) and CT26.CL25 cells were incubated with anti-mouse CD47 antibody (Santa Cruz, sc-12731). For cell binding assays, HT29, Raji and CT26.CL25 cells (1×10⁶) were incubated at 4° C. for 30 minutes with the addition of PBS, exosomes or mSIRPα, respectively. The cells were then incubated with anti-Myc antibodies (1:400, Abcam, ab9106) and detected by the addition of Alexa fluor 488-conjugated secondary antibody (1:800, Jackson ImmunoResearch). The cells were then measured using an Accuri™ C6 flow cytometer (BD Biosciences) and analyzed using FlowJo_V10 software (FlowJo). The binding specificity of SIRPα-exosomes to CD47 was analyzed by block experiments through pre-incubation of cells with anti-human CD47 antibody (1:100, Abcam, ab3283).

T1 sequence (Q08722 19-323): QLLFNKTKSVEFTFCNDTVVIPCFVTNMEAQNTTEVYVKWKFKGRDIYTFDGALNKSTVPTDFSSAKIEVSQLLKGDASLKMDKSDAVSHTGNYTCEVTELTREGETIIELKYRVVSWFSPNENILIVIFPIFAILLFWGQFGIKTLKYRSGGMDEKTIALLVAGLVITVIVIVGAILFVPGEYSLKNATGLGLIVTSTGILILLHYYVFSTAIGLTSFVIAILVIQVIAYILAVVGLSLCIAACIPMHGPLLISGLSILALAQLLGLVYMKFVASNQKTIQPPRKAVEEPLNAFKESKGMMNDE

binding result: binds
B1: purified recombinant SIRPα-Myc monomer protein (mSIRPα) (receptor)
chain: EEELQIIQPDKSVLVAAGETATLRCTITSLFPVGPIQWFRGAGPGRVLIYNQRQGPFPRVTTVSDTTKRNNMDFSIRIGNITPADAGTYYCIKFRKGSPDDVEFKSGAGTELSVRAKP
notes: Expressed in bacteria from pET-28a (Nde I-SIRPα variant-Myc-Hind III), purified on Ni-NTA; also called monomeric SIRPα protein; recombinant SIRPα protein; not shown: N-terminal histidine tag from pET-28a; C-terminal Myc tag
